Experimental data as given in patent US20210340209A1 (IMMUNE TARGETING, published 2021).

Molecular target: T1, human IL-2 mutant V1 (human, UniProt P60568 21-153)
T1 construct: Mutein found by yeast surface display screen; the ELISA format (any tag or Fc) is not described; also called IL-2 mutein
T1 chain: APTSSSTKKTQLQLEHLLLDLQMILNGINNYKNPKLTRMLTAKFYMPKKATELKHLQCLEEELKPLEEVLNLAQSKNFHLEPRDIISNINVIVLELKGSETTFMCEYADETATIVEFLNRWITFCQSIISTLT
Assay: ELISA

B1: human IL-2R beta (receptor)
chain: AVNGTSQFTCFYNSRANISCVWSQDGALQDTSCQVHAWPDRRRWNQTCELLPVSQASWACNLILGAPDSQKLTTVDIVTLRVLCREGVRWRVMAIQDFKPFENLRLMAPISLQVVHVETHRCNISWEISQASHYFERHLEFEARTLSPGHTWEEAPLLTLKQKQEWICLETLTPDTQYEFQVRVKPLQGEFTTWSPWSQPLAFRTKPAALGKDT
notes: Soluble IL-2R beta reagent, titrated on yeast and used in ELISA; also called IL-2 receptor beta
- fold stronger binding than to IL-2 WT: ~20 times
